Laboratory results from article PMC4996978, “A MUB E2 structure reveals E1 selectivity between cognate ubiquitin E2s in eukaryotes” (Nature Communications, 2016).
Numbering of substitutions follows the chain as printed. Names and notes keep the numbering of the source. Each block holds one binder with its values, some of them ahead of it.

Assays:
biotinylated E2 (Ube2D3) = molecular target: T1, biotinylated E2 (Ube2D3) (human, UniProt P61077 1-147, biotin); test: inhibition of E2 activation (HTRF-FRET E2∼Ub formation assay); 1 nM E1 (HsUBE1), 10 μM Mg-ATP, 50 nM Ub-fluorescein, 0.9 nM streptavidin-terbium, 5 nM biotinylated Ube2D3; 50 mM Tris-HCl pH 7.5, 5 mM MgCl2, 0.05% CHAPS; HsMUB pre-incubated with E2 for 15 min; initial velocity against HsMUB concentration fit to a one-site binding model; IC50 equivalent to Ki; conditions: both partners purified
T1 construct: human ubiquitin-conjugating enzyme E2 D3 (Ube2D3), biotinylated, labelled with streptavidin-terbium in the assay; source: reagents adapted from the E1/E2 Lite kit (LifeSensors, Malvern, PA)
T1 sequence (P61077 whole entry): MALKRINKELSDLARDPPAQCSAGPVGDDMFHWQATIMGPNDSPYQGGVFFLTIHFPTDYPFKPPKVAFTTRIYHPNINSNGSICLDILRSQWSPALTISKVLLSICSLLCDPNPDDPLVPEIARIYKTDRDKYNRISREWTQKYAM

GST-AtUBC8 = molecular target: T2, GST-AtUBC8 (Arabidopsis thaliana, UniProt P35131 1-148); test: pull-down; GST-AtUBC8 immobilized on GSH resin; equimolar His-tagged AtMUB3, AtMUB3 mutants and Ub incubated separately for 15 min; washed three times with sonication buffer (50 mM Tris-HCl pH 7.5, 300 mM NaCl, 10% glycerol, 10 mM imidazole); immunoblot; conditions: both partners purified
T2 construct: Arabidopsis thaliana ubiquitin-conjugating enzyme E2 8 (AtUBC8); also called GST-tagged AtUBC8; source: E. coli Rosetta 2 (DE3) pLacI, soluble extract fraction immobilized on GSH resin and washed
T2 sequence (P35131 whole entry): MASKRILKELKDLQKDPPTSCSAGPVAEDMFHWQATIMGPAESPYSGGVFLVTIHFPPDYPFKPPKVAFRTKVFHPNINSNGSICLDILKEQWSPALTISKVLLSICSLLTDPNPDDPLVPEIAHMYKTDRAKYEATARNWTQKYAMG

Ki (biotinylated E2 (Ube2D3)): 220 ± 16 nM
B1: HsMUB (natural protein, human, UniProt O95164 1-117, looked up)
chain: MSSNVPADMINLRLILVSGKTKEFLFSPNDSASDIAKHVYDNWPMDWEEEQVSSPNILRLIYQGRFLHGNVTLGALKLPFGKTTVMHLVARETLPEPNSQGQRNREKTGESNCCVIL
notes: Homo sapiens membrane-anchored ubiquitin-fold protein (HsMUB); coding region cloned without stop codon into pET28b; also called human homologue of MUB; source: E. coli Rosetta 2 (DE3) pLacI, purified

binding result (GST-AtUBC8): binds
B2: AtMUB3-His (natural protein, Arabidopsis thaliana, UniProt Q9SW27 1-118, looked up)
chain: MPEEESIDIKFRLYDGSDIGPFRYSAASTVDFLKQRVVSDWPKGKTVVPKGINEVKLISSGKILENNKTVGQCKTPFGDIAGGVIVMHVVVQPSLAKSKTEKKVDKAPKAVICTCTIL
notes: coding region cloned without stop codon into pET28b; also called His-tagged AtMUB3; not shown: His6, C-terminal, kept

binding result (GST-AtUBC8): binds
B3: AtMUB3 P76A F77A G78A D79A I80A (All A) (natural protein, Arabidopsis thaliana)
chain: B2 chain with P76A, F77A, G78A, D79A, I80A
notes: Generated by bridging-PCR and cloned into pET28b; also called AtMUB3 All A LBL mutant; AtMUB3 with the core LBL residues ProPheGlyAspIle all converted to alanines
